The values below come from patent US20110097715, “METHOD FOR PURIFYING OR DETECTING A TARGET PROTEIN” (LFB - BIOTECHNOLOGIES, published 2011).

Data set [1] deals with human plasma-derived factor VII (HP FVII) (Homo sapiens, UniProt P08709 P08709:61-466). The experiment in a line: SPR; Hepes 20 mM pH 8, NaCl 50 mM, CaCl2 2 mM, BSA 0.01%; aptamer immobilized via 3'-biotin on SA chip; allosteric binding model; FVII 50-400 nM. The settings on record: tags: plasma-derived, purity 99%; label: 3'-biotin. The text has this:
(§1) This aptamer is modified at the 3′-end thereof by grafting a biotin. Nucleotide bases in bold (SEQ no 1) are 2′O-methylated, which makes it possible to stabilize the aptamer by making it more resistant to nucleases. The aptamer was then immobilized onto an avidin-containing SA chip (Biacore GE). The aptamer was thus immobilized in an oriented manner through the 3′-end thereof with an immobilization rate of 2700 RU (where 1 RU does approximately correspond to 1 pg of immobilized product per mm²).
Some purified, human plasma-derived factor VII (HP FVII, purity: 99%) was diluted in run buffer (Hepes 20 mM pH=8, NaCl 50 mM, CaCl₂ 2 mM and BSA 0.01%) so as to obtain four samples with human plasma-derived factor VII concentration levels of 50, 100, 200 and 400 nM. Each sample was injected sequentially into the same immobilized aptamer-containing chip through a biotin-streptavidin interaction. Controls are obtained by injecting blanks which only contained the run buffer. All injections are performed at a flow rate of 20 μl/min for 120 sec, after injection of the run buffer into the chip at the same flow rate for 240 sec. […] A binding to the immobilized aptamer generates a signal increase expressed in resonance unit (RU) recorded by the device (FIG. 1). […] The modelling of the recorded interactions was made by means of the Biaevaluation software (GE).
In general terms: In SPR one partner is held on a chip, and binding of the other changes the refractive index at the surface.

Data set [2] addresses rabbit plasma-derived factor VII (Oryctolagus cuniculus, UniProt P98139 P98139:40-444). In words: SPR; complete absence of binding at 50-400 nM; same buffer (CaCl2 2 mM). The settings on record: tags: American Diagnostica; label: 3'-biotin.
From the text: as §1
Rabbit plasma-derived factor VII (American Diagnostica) was diluted in the same buffer as in Example 1 at concentration levels of 50, 100 200, 400 nM, thereafter was injected under the same conditions as in Example 1 into the same chip containing the immobilized aptamer.

Sequence of human plasma-derived factor VII (HP FVII) (P08709 61-466, one chain of several): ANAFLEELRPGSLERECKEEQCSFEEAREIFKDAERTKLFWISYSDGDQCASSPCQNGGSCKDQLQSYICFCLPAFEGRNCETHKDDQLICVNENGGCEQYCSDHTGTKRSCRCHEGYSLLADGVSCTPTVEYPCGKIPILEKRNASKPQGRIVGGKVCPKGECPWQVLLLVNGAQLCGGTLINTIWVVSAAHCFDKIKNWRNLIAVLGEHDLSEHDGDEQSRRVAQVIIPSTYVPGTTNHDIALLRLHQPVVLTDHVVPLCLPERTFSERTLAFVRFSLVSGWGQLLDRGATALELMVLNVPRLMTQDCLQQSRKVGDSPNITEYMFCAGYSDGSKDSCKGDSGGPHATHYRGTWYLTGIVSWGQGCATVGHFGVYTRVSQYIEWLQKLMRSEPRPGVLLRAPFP
Sequence of rabbit plasma-derived factor VII (P98139 40-444, one chain of several): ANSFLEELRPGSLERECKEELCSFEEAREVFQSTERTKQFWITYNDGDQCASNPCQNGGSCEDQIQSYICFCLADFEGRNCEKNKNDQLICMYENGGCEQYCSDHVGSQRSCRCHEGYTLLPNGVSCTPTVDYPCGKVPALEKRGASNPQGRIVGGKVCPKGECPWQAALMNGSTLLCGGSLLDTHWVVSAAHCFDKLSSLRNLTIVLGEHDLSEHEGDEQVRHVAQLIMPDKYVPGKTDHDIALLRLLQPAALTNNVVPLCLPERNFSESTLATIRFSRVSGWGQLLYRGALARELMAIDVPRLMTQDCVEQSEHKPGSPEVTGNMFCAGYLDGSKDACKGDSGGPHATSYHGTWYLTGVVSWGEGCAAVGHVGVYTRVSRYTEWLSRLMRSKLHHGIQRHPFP

B1: anti-human FVII aptamer (SEQ no 1) (ssRNA)
RNA: GGGAGAGAGGAAGAGGGAUGGGAGCCUAUGUAACAGAUGCAGAUCCCUAGUCGUCCCAACACCAUAAC
modifications: 2'-OMe at bases shown in bold in the patent (positions not recoverable from text); 3'-biotin
A word on the Kd: it is a measure of binding affinity in units of concentration. Low values mean a tighter complex, high ones a looser complex. On to B1, for which the affinity in data set [1], expressed as Kd, was 1400 nM. Besides, the binding result in data set [2] is on record as “no binding”.
